Kd data for two molecules are collected here from publication PMC10557622 (bioRxiv, 2023).

One assay concerns the target CENP-A/H4 (UniProt P49450;P62805). Put plainly: BLI.
Assay [1] has as its target 6xHis-MBP-CENP-C 1-600-SpyCatcher (UniProt Q03188 1-600). Put plainly: BLI. On the technique in general: In BLI a coated tip is dipped into the sample, and binding shifts an interference pattern.

Chain of 6xHis-MBP-CENP-C 1-600-SpyCatcher (Q03188 1-600): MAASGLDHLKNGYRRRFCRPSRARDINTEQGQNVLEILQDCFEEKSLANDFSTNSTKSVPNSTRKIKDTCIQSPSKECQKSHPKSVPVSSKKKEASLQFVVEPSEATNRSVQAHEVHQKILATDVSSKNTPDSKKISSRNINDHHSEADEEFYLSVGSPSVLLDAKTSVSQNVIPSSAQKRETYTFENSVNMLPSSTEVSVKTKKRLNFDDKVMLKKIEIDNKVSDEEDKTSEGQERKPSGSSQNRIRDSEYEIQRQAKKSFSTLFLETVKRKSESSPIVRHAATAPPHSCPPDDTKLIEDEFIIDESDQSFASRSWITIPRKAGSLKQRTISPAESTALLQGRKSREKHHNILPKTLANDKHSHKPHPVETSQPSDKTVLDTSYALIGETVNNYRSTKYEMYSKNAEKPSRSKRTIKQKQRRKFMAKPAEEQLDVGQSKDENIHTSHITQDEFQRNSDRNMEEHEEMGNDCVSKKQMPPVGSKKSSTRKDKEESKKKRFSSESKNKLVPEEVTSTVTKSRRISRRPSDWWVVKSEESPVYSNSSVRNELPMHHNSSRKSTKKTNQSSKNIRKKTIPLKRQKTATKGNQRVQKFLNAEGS

B1: purified BANF1 (natural protein)
chain: MTTSQKHRDFVAEPMGEKPVGSLAGIGEVLGKKLEERGFDKAYVVLGQFLVLKKDEDLFREWLKDTCGANAKQSRDCFGCLREWCDAFL
Usually Kd stands for the free concentration of one partner at which half of the binding sites on the other are occupied at equilibrium, for simple one-to-one binding. Read a high Kd as a looser complex. As to B1, in the assay with CENP-A/H4, the Kd was determined as 290 nM.

B2: recombinant Human EMD protein with N-terminal His-tag (natural protein)
chain: MDNYADLSDTELTTLLRRYNIPHGPVVGSTRRLYEKKIFEYETQRRRLSPPSSSAASSYSFSDLNSTRGDADMYDLPKKEDALLYQSKGYNDDYYEESYFTTRTYGEPESAGPSRAVRQSVTSFPDADAFHHQVHDDDLLSSSEEECKDRERPMYGRDSAYQSITHYRPVSASRSSLDLSYYPTSSSTSFMSSSSSSSSWLTRRAIRPENRAPGAGLGQDRQVPLWGQLLLFLVFVIVLFFIYHFMQAEEGNPF
As for B2, the Kd with CENP-A/H4 is 137 nM; in assay [1] it was 404 nM.
